The chains are these.
B1: CD3hi anti-CD3 antibody (antibody, V domains shown)
VH: EVQLVESGGGLVQPGGSLKLSCAASGFTFNTYAMNWVRQASGKGLEWVGRIRSKYNNYATYYADSVKDRFTISRDDSKSTLYLQMNSLKTEDTAVYYCVRHGNFGNSYVSWFAYWGQGTLVTVSS
VL: QAVVTQEPSLTVSPGGTVTLTCRSSTGAVTTSNYANWVQQKPGQAPRGLIGGTNKRAPWTPARFSGSLLGDKAALTLSGAQPEDEAEYFCALWYSNLWVFGGGTKLTVL
B2: CD3med anti-CD3 antibody (antibody, V domains shown)
VH: B1 VH with S79N, L81A, Y114H
VL: B1 VL with R23G, T31S, D71G, F89Y
B3: CD3lo anti-CD3 antibody (antibody, V domains shown)
VH: B1 VH with L81A
VL: B1 VL

Residue numbers refer to the chain shown, from its start.

This test addresses CD3-Fc. Nature of the test: SPR (Biacore T200, 25 C); CD3-Fc captured on anti-hFc IgG1 CM5 chip, antibody injected in 1:2 dilution series; 1:1 binding model.
For the molecule B1, the Kd was determined as 16 nM. This counts as double-digit nanomolar.

In turn, B2 registered a Kd of 30 nM.

With B3, the Kd worked out at 48 nM.

The values above are taken from patent US20250223359A1.
